{
  "source": "patent US20220098328A1",
  "about": "“ANTIBODIES TO M(H)DM2/4 AND THEIR USE IN DIAGNOSING AND TREATING CANCER” (NomoCan Pharmaceuticals LLC, priority 2017, published 2022)",
  "molecules": {"B1": {"name": "NMC-H103 (VH4/VK3): humanized NMC-103 variant, human IgG1, VH4 (SEQ ID NO:299) and VK3 (SEQ ID NO:297) (antibody, V domains shown)", "VH": "EVQLVESGGGLVQPGPSLRLSCTTSGFTFTHYYMSWVRQAPGKGLEWLGFIRNKAKGYTAEYSASVKGRFTISRDNSKSTLYLQMNSLRAEDTAVYYCARDIGDNWGQGTLVTVSS", "VL": "DIVMTQTPLSSPVTLGQPASISCRSSKNLLHSNGITYLYWYLQKPGQSPQLLISRVSNLASGVPDRFSGSESGTDFTLKISRVEAEDVGVYFCAQLLELPYTFGGGTKVEIK", "modifications": "human IgG1 constant regions lacking entries; mAb NMC-H103.VH4Heavy Chain Variable Region; mAb NMC-H103.VK3Light Chain Variable Region"}},
  "system": "human lung cancer A549 cells",
  "assay": "A549 tumors in NSG mice with or without Hu-PBMCs",
  "type": "in vivo",
  "conditions": "1 i.p. dose 10 mg/kg, n=4",
  "description": "Subcutaneous tumors were prepared by implanting either mouse colon MC-38 cells (5×10^5 cells/mouse), human lung cancer A549 cells (5×10^6 cells/mouse) or mouse lung cancer M109 cells (0.5×10^5 cells/mouse) in the right flanks of NOD scid gamma mice (NSG: NOD.Cg-Prkdc^scidIl2rg^tm1Wjl/SzJ) purchased from Jacksons Laboratory. From day 7 after tumor implantation, the tumor volumes were measured 2 times/week with a digital caliper. In the case of mouse colon MC-38 cells and human lung cancer A549 cells study in NSG mice, once tumors reached an average volume of 300-400 mm^3, mice were randomly divided into 3 groups (n=4) and 7×10^6 human PBMCs (Stem Cell Technologies Cat #70025) was injected into the tail vein of mice in groups 1 and 3. Seven days later, in the case of mouse colon MC-38 cells study, mAb NMC-C303 antibody (10 mg/kg) was injected intraperitoneally (i.p.) to mice in groups 2 and 3 and human isotype control antibody (BioXCell BP02) into mice in group 1 on days 33 and 35 post tumor inoculation. In the case of human lung cancer A549 cells study, seven days post PBMC injection, mice in group 2 and 3 received 1 intraperitoneal injection of mAb NMC-H103 (VH4/VK3) (10 mg/kg) while mice in group 1 received 1 injection of human isotype control antibody (BioXCell BP02) and tumors were measure 5 days later. […]",
  "data": [
    {"molecule": "B1", "values": [
      {"measurement": "average tumor volume", "setting": "NSG mice in presence of Hu-PBMCs", "value": 784, "unit": "mm^3"},
      {"measurement": "average tumor volume", "setting": "NSG mice in the absence of Hu-PBMCs", "value": 1367, "unit": "mm^3"}
    ]}
  ]
}
